# Assay: yeast display, Sf9 membrane polyspecificity reagent, FACS + sequencing; frameworks hold sequencing errors
# Procedure, shortened: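 Nanobodies from a synthetic yeast display library (Saccharomyces cerevisiae BJ5465), induced 36–48 hours with galactose, were stained 1 hour at 4 °C with 10% biotinylated, detergent-solubilized Sf9 membrane reagent, enriched on streptavidin microbeads, then FACS-sorted. Anti-HA (expression) and streptavidin (reagent binding) fluorescence set low and high (top ~1%) gates. Polyreactivity labels come from the gate of origin. Genes were colony-PCR amplified, MiSeq 2 × 250 sequenced and filtered by CDR length.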
row,Sequence,polyreactivity (PSR sort gate)
1,QVQLVESGGGLVQAGGSLRLSCAASGFIFKSYTMGWYRQAPGKERELVADISKSGGSTYYADSVKGRFTISRDNAKNTVYLQMNSLKPEDTAVYYCNADIWLYVNNYSEYDYWGQGTQVTVSS,high polyreactivity
2,QVQLVESGGGLVQAGGSLRLSCAASGFIFLAYTMGWYRQAPGKERELVAAISASGGRTYYADSVKGRFTISRDNAKNTVYLQMNSLKPEDTAVYYCAAAGGRFIRYGYWGQGTQVTVSS,high polyreactivity
3,QVQLVESGGGLVQAGGSLRLSCAASGFIFLDYAMGWYRQAPGKERELVAAISSRGARTYYADSVKGRFTISRDNAKNTVYVQMNSLKPEDTAVYYCAARGPLDRYGYWGQGTQVTVSS,high polyreactivity
4,QVQLVESGGGLVQAGGSLRLSCAASGFIFLENDMGWYRQAPGKERELVASINSGSDTNYADSVKGRFTISRDNAKNTVYLQMNSLKPEDTAVYYCNASYNGVPARYDYWGQGTQVTVSS,low polyreactivity
5,QVQLVESGGGLVQAGGSLRLSCAASGFIFLETDKGWYRQAPGKERELVASINSGTNTYYADSLKGRFTISRDNAKNTVYVEMNSLKPEDSAVYYCNADDAYLVTQPYDDNYDYWGQGTQVTVSS,low polyreactivity
6,QVQLVESGGGLVQAGGSLRLSCAASGFIFLGNAMGWYRQAPGKERELVASISRGGSTNYADSVKGRFTISRDNAKNTVYLQMNSLKPEDTAVYYCAADLSDKFGYWGQGTQVTVSS,low polyreactivity
7,QVQLVESGGGLVQAGGSLRLSCAASGFIFLLNAMGWYRQAPGKERELVAAISWGGGSTYYADSVKGRFTISRDNAKNTVYLQMNSLKPEDTAVYYCAAKPGKTPLTGHRGPYDTGYGYWGQGTQVTVSS,low polyreactivity
8,QVQLVESGGGLVQAGGSLRLSCAASGFIFLPYFMAWYRQAHGKERELVAAISGVGGITYYADSVKGRFTISRDNAKNTVYLQMNSLKPEDTAVYYCAAESSYFVALNQFYTVEFYYWGQGTQVTVSS,low polyreactivity
9,QVQLVESGGGLVQAGGSLRLSCAASGFIFLQYADMGWYRQAPGKERELVAAISYIGGSTYYADSVKGRFTISRDNAKNTVYLQMNSLKPEDTAVYYCAAEYSTAFGEYYYWGQGTQVTVSS,high polyreactivity
10,QVQLVESGGGLVQAGGSLRLSCAASGFIFLSYAMGRYRQAPGKERELVAAISGRGGSTYYADSVKGRFTISRDNAKNTVYLQMNSLKPEDTAVYYCAVRRYRFPPGDYWGQGTQVTVSS,high polyreactivity
11,QVQLVESGGGLVQAGGSLRLSCAASGFIFLYAMGWSRQAPRKERELVAAISWSDTSTYYADSVKGRFTISRDNAKNTVYLQMNSLIPEDTAVYFCNAETWNYGDFDYWGQGTQVTVSS,high polyreactivity
12,QVQLVESGGGLVQAGGSLRLSCAASGFIFLYYAMGWYRQAPGKERELVADSSRGADTKYADSVKGRFTISRDNAKNNVYLQMNSLKPVDTAVYYCAARTGWPRVGFQFPAHVGFDYWGQGTQVTVSS,low polyreactivity
13,QVQLVESGGGLVQAGGSLRLSCAASGFIFNAYAMGWYRQAPGKERELVAAISTRCSNTYYADSVKGRFTISRDNAMNTVFLQMNSLIPEDTAVYYCAARGYVTYSKSNYWGQGTQVTVSS,high polyreactivity
14,QVQLVESGGGLVQAGGSLRLSCAASGFIFNKYAMGWYRQAPGKERELVATIRRDGSTNYADSVKGRFTISRDNAKNTVYLQMNSLKPEDTAVYYCAVRPYYWSRDYYWGQGTQVTVSS,high polyreactivity
15,QVQLVESGGGLVQAGGSLRLSCAASGFIFNRNAMGWYRQAPGKEREFVAAISTRGAGTYYADSVKGRFTISRDNAKNTVYLQMNSLKPEDTAVYYCAADKFRYGYYNRYSKVGYDYWGQGTQVTVSS,high polyreactivity
16,QVQLVESGGGLVQAGGSLRLSCAASGFIFNRYAMGWYRQAPGKERELVAAISYRGGGTYYADSVKGRFTISRDNAKNTVYLQMNSLKPEDTAVYYCAADSSYYYPMDYWGQGTQVTVSS,high polyreactivity
17,QVQLVESGGGLVQAGGSLRLSCAASGFIFNRYAMGWYRQAPGKERELVADITGGSTYYADSVKGLFTISRDNAKNTVFLQMNSLKPEDTAVYYCAADVLRISTLLFRGPGFDSWGQGTQVTVSS,low polyreactivity
